Where a chain is given by its changes, count along the chain named. Each block holds one binder with its values, some of them ahead of it.
How the values were obtained:
[1] = target: T1, TROP2 on TROP2-positive NCI-H1975 cells (human, UniProt P09758 27-323); assay: cell-based or functional assay
T1 sequence: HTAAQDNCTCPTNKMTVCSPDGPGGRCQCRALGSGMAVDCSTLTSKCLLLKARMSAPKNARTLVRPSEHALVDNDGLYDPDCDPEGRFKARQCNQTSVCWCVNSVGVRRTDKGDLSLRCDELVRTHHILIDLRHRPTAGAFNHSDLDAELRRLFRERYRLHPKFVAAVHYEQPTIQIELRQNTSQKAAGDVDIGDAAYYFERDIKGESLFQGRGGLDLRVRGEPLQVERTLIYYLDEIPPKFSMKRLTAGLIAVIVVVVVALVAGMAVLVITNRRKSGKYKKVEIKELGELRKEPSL

[2] = target: T2, Human TROP2 Protein, His Tag (Acro Biosystems) (human, UniProt P09758 27-274); assay: BLI (Octet) [1/2]
T2 construct: Bought antigen used at 50 nM in the Octet screen; also called TACSTD2; not shown: His tag
T2 sequence (looked up): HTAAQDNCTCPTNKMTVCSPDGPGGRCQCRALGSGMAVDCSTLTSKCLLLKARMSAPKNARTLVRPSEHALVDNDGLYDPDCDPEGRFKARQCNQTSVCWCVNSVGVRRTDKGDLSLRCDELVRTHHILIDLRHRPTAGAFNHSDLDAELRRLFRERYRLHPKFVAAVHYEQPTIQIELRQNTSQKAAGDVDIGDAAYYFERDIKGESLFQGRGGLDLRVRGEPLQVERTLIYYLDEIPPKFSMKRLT
Procedure: After allowing for four days of protein expression, cell culture supernatants were collected, quantified by SDS-PAGE analysis (DNS), and the pH dependence of the variant was evaluated using biolayer interferometry (BLI) on an Octet RED 96e instrument. Briefly, cell culture supernatants were diluted based on qualitative expression level of the variant determined by visual examination of SDS-PAGE gels, 5 μL of cell culture supernatant was diluted into 195 μL of 1×PBST, pH 7.4 for high expressors, 25 μL of cell culture supernatant was diluted into 175 μL of 1×PBST, pH 7.4 for medium expressors and 100 μL of cell culture supernatant was diluted into 100 μL of 1×PBST, pH 7.4 for low expressors for loading onto the sensor tips. The resulting diluted supernatants were then captured on an anti-human Fc sensor (Forte Bio). A baseline was established using 1×PBST (50 mM Potassium Phosphate Buffer+150 mM NaCl+0.05% Tween 20) pH 7.4, and the sensor was associated with 50 nM of TROP2 (Human TROP2 Protein, His Tag, Acro Biosystems) in 1×PBST pH 7.4 for 120 sec to generate an association curve. In the dissociation phase, the antibody-antigen complex on the sensor was exposed to 1×PBST pH 7.4 or pH 5.4, for 300 sec. Association and dissociation phase curves were examined for the starting ABPC antibody (with no substitutions) and each corresponding antibody variant at pH 5.4 and pH 7.4 to inform on two criteria: a) enhanced dissociation (i.e., higher koff values) at pH 5.4 due to histidine or alanine substitution compared to the starting ABPC, (with no substitutions), and b) reduced dissociation at pH 7.4 (i.e., lower koff values) compared to pH 5.4 in the antibody variant itself and with the starting ABPC (with no substitutions). […] It was also noted that while some mutations obliterated TROP2 binding, others were tolerated with little or n change in TROP2 binding kinetics.

B1: MYT13395 (antibody, V domains shown)
VH: QVQLQQSGSELKKPGASVKVSCKASGYTFTNYGMNWVKQAPGQGLKWMGWINTYTGEPTYTDDHKGRFAFSLDTSVSTAYLQISSLKADDTAVYFCARGGFGSSYWYFDVWGQGSLVTVSS
VL: DIQLTQSPSSLSASVGDRVSITCKASQDVSIAHAWYQQKPGKAPKLLIYSASHRYTGVPDRFSGSGSGTDFTLTISSLQPEDFAVYYCQQHYITPLTFGAGTKVEIK
FOW H1975 (10 nM) [1]: 1.29 fold over parent antibody

B2: MYT13392 (antibody, V domains shown)
VH: B1 VH with Y60H, H64F
VL: B1 VL
FOW H1975 (10 nM) [1]: 1.19 fold over parent antibody

B3: MYT13377 (antibody, V domains shown)
VH: B1 VH with D62H, H64F
VL: B1 VL with S30H, H33V, A51H, H53Y
FOW H1975 (10 nM) [1]: 1.26 fold over parent antibody

B8: MYT13372 (antibody, V domains shown)
VH: B1 VH with H64F, K65H
VL: B1 VL with S30H, H53Y
FOW H1975 (10 nM) [1]: 1.18 fold over parent antibody

B9: MYT13398 (antibody, V domains shown)
VH: B1 VH with Y32H, H64F
VL: B1 VL with H53Y, I93H
FOW H1975 (10 nM) [1]: 1.07 fold over parent antibody

B11: MYT13388 (antibody, V domains shown)
VH: B1 VH with H64F, K65H
VL: B1 VL with S30H, H33V, S52H, H53Y
FOW H1975 (10 nM) [1]: 1.24 fold over parent antibody

B12: MYT13400 (antibody, V domains shown)
VH: B1 VH with Y60H, H64F
VL: B1 VL with H53Y, I93H
FOW H1975 (10 nM) [1]: 1.13 fold over parent antibody

B17: MYT13300 (antibody, V domains shown)
VH: QVQLQESGPGLVKPSETLSLTCTVSGGSISSYGVHWIRQPPGKGLEWIGVIWTSGVTDYNSALMGRVTISVDTSKNQFSLKLSSVTAADTAVYYCARDGDYDRYTHDYWGQGTLVTVSS
VL: DIVMTQSPDSLAVSLGERATINCRASKSVSTSGYSYMHWYQQKPGQPPKLLIYLASNLESGVPDRFSGSGSGTDFTLTISSLQAEDVAVYYCQHSRHLPYTFGQGTKLEIK
FOW H1975 (10 nM) [1]: 1.39 fold over parent antibody

B18: MYT13283 (antibody, V domains shown)
VH: B17 VH with D102H, H106M
VL: B17 VL with S60H, H97E
FOW H1975 (10 nM) [1]: 1.51 fold over parent antibody

B19: MYT13298 (antibody, V domains shown)
VH: B17 VH with D102H, H106M
VL: B17 VL
FOW H1975 (10 nM) [1]: 1.59 fold over parent antibody

B20: MYT13289 (antibody, V domains shown)
VH: B17 VH with R103H, H106M
VL: B17 VL with Q93H, H97E
FOW H1975 (10 nM) [1]: 1.37 fold over parent antibody

B21: MYT13299 (antibody, V domains shown)
VH: B17 VH with R103H, H106M
VL: B17 VL
FOW H1975 (10 nM) [1]: 1.35 fold over parent antibody

B23: MYT13288 (antibody, V domains shown)
VH: B17 VH with D102H, H106M
VL: B17 VL with Q93H, H97E
FOW H1975 (10 nM) [1]: 1.15 fold over parent antibody

B24: MYT13279 (antibody, V domains shown)
VH: B17 VH with R103H, H106M
VL: B17 VL with E59H, H97E
FOW H1975 (10 nM) [1]: 1.37 fold over parent antibody

B25: MYT13285 (antibody, V domains shown)
VH: B17 VH
VL: B17 VL with S60H, H97E
FOW H1975 (10 nM) [1]: 1.61 fold over parent antibody

B26: MYT13290 (antibody, V domains shown)
VH: B17 VH
VL: B17 VL with Q93H, H97E
FOW H1975 (10 nM) [1]: 1.7 fold over parent antibody

Now from value to binder:

FOW H1975 (10 nM) [1]: 1.13 fold over parent antibody
B4: MYT13422 (antibody, V domains shown)
VH: B1 VH with Y32H, H64F
VL: B1 VL with S30H, H33V, A51H, H53Y, I93H

FOW H1975 (10 nM) [1]: 1.16 fold over parent antibody
B5: MYT13405 (antibody, V domains shown)
VH: B1 VH with H64F, G66H
VL: B1 VL with H53Y, I93H

FOW H1975 (10 nM) [1]: 1.08 fold over parent antibody
B6: MYT13404 (antibody, V domains shown)
VH: B1 VH with H64F, K65H
VL: B1 VL with H53Y, I93H

FOW H1975 (10 nM) [1]: 1.1 fold over parent antibody
B7: MYT13402 (antibody, V domains shown)
VH: B1 VH with D63H, H64F
VL: B1 VL with H53Y, I93H

FOW H1975 (10 nM) [1]: 1.13 fold over parent antibody
B10: MYT13403 (antibody, V domains shown)
VH: B1 VH
VL: B1 VL with H53Y, I93H

FOW H1975 (10 nM) [1]: 1.29 fold over parent antibody
B13: MYT13416 (antibody, V domains shown)
VH: B1 VH with Y60H, H64F
VL: B1 VL with S30H, H33V, A51H, H53Y, Q89H

FOW H1975 (10 nM) [1]: 1.16 fold over parent antibody
B14: MYT13401 (antibody, V domains shown)
VH: B1 VH with D62H, H64F
VL: B1 VL with H53Y, I93H

FOW H1975 (10 nM) [1]: 1.06 fold over parent antibody
B15: MYT13413 (antibody, V domains shown)
VH: B1 VH with H64F, G66H
VL: B1 VL with H33V, A51H, S52H, H53Y

binding result [2]: binds
B16: MYT11705 (antibody, V domains shown)
VH: B17 VH with G26H, H106M
VL: B17 VL with H97E
notes: hu7E6SVG variant, His at HCV position 26 (H1 01); screened as IgG in Expi293 supernatant

FOW H1975 (10 nM) [1]: 1.09 fold over parent antibody
B22: MYT13446 (antibody, V domains shown)
VH: B17 VH with R103H, H106M
VL: B17 VL with E59H, H97E, T101H

binding result [2]: binds
B27: MYT11707 (antibody, V domains shown)
VH: B17 VH with S28H, H106M
VL: B17 VL with H97E
notes: hu7E6SVG variant, His at HCV position 28 (H1 03); screened as IgG in Expi293 supernatant

binding result [2]: binds
B28: MYT11706 (antibody, V domains shown)
VH: B17 VH with G27H, H106M
VL: B17 VL with H97E
notes: hu7E6SVG variant, His at HCV position 27 (H1 02); screened as IgG in Expi293 supernatant

binding result [2]: binds
B29: MYT11709 (antibody, V domains shown)
VH: B17 VH with S30H, H106M
VL: B17 VL with H97E
notes: hu7E6SVG variant, His at HCV position 30 (H1 05); screened as IgG in Expi293 supernatant

binding result [2]: binds
B30: MYT11710 (antibody, V domains shown)
VH: B17 VH with S31H, H106M
VL: B17 VL with H97E
notes: hu7E6SVG variant, His at HCV position 31 (H1 06); screened as IgG in Expi293 supernatant

binding result [2]: binds
B31: MYT11712 (antibody, V domains shown)
VH: B17 VH with G33H, H106M
VL: B17 VL with H97E
notes: hu7E6SVG variant, His at HCV position 33 (H1 08); screened as IgG in Expi293 supernatant

binding result [2]: binds
B32: MYT11713 (antibody, V domains shown)
VH: B17 VH with V34H, H106M
VL: B17 VL with H97E
notes: hu7E6SVG variant, His at HCV position 34 (H1 09); screened as IgG in Expi293 supernatant

binding result [2]: binds
B33: MYT11708 (antibody, V domains shown)
VH: B17 VH with I29H, H106M
VL: B17 VL with H97E
notes: hu7E6SVG variant, His at HCV position 29 (H1 04); screened as IgG in Expi293 supernatant

binding result [2]: binds
B34: MYT11711 (antibody, V domains shown)
VH: B17 VH with Y32H, H106M
VL: B17 VL with H97E
notes: hu7E6SVG variant, His at HCV position 32 (H1 07); screened as IgG in Expi293 supernatant

binding result [2]: binds
B35: MYT11714 (antibody, V domains shown)
VH: B17 VH with H35A, H106M
VL: B17 VL with H97E
notes: hu7E6SVG variant, Ala in place of His at HCV position 35 (H1 10); screened as IgG in Expi293 supernatant

Reference: patent US20260274985A1 (MYTHIC THERAPEUTICS, published 2026)
